# Test: yeast display, Sf9 membrane polyspecificity reagent, FACS + sequencing; frameworks hold sequencing errors
# Procedure, shortened: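 Synthetic nanobody libraries on Saccharomyces cerevisiae BJ5465 were galactose-induced for 36–48 hours, stained 1 hour at 4 °C with 10% biotinylated, detergent-solubilized Sf9 membrane reagent and enriched on streptavidin microbeads. FACS then separated cells into low and high (top ~1%) gates by anti-HA (expression) and streptavidin (reagent binding) fluorescence. Genes were colony-PCR amplified, MiSeq 2 × 250 sequenced and CDR-length filtered. A clone's polyreactivity label is that of its gate of origin.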
row,Sequence,polyreactivity (PSR sort gate)
1,QVQLVESGGGLVQAGGSLRLSCAASGIIFSYYTMGWYRPAPGKERELVAAISARGGRTYYADSVKGRFTISRDNAKNTVYLQMNSLKPEDTAVYYCAASWSTEYYWGQGTQVTVSS,high polyreactivity
2,QVQLVESGGGLVQAGGSLRLSCAASGIIFTDNAMGWYRQAPGKARELVATISWSTDNTYYADSVKGRFTISRDNAKNTVYLQMNSLKPEDTAVYYCAAGWQIIQGSQYDYWGQGTQVTVSS,low polyreactivity
3,QVQLVESGGGLVQAGGSLRLSCAASGIIFTDYAMGWYRQAPGTERELVAAISSGGGSTYYADSVKGRFTISRDNAKYSVYLQMNSLKPDDTAVYYGAAQSSGSYGFDHWGQGTQVTVSS,high polyreactivity
4,QVQLVESGGGLVQAGGSLRLSCAASGIIFTFNARGWDRQAPGKERELVASISITGDTYYADSVKGRFTISRDNAKNTVYLQMNSLKPEDTAVYYCAAEYYFYSRHWYISYDYWGQGTQVTVSS,low polyreactivity
5,QVQLVESGGGLVQAGGSLRLSCAASGIIFTFYGMGWYRQAPGKERELVAAIRTGGSTTYADSVKGRFTISRDNAKNTVYLQMNSLKPEDTAVYYCAAERYWVFHGTISYNYDYWGQGTQVTVSS,low polyreactivity
6,QVQLVESGGGLVQAGGSLRLSCAASGIIFTKYVMGWYRQAPGKERELVAAINTDGGSTRYADSVKGRFTISRDNAKNTVYLQMNSLIPEDTAVYYCNTVWFYGAKYDYWGQGTQVTVSS,high polyreactivity
7,QVQLVESGGGLVQAGGSLRLSCAASGIIFTPYNMGWYRQAPGKERELVAASTGSGGSTYYADSVKGRFTISRDNAKNTVDLQMNSLKPEDTAVYYCAAYKQYRFYRYDYWGQGTQVTVSS,high polyreactivity
8,QVQLVESGGGLVQAGGSLRLSCAASGIIFTVYAMGWYRQAPGKERELVAAITSSGGRTYYADSVKGRFTISRDNAKNTVYLQMNSLKPEDTAVYYCAASIWLYRYYYWGQGTQVTVSS,high polyreactivity
9,QVQLVESGGGLVQAGGSLRLSCAASGIIFTVYVMGWYRQAPGKERELVAGITFSTSSTYYADSVKGRFTISRDNAKNTVYLQMNSLKPEDTAVYYCNKDALQTAFDYWGQGTQVTVSS,low polyreactivity
10,QVQLVESGGGLVQAGGSLRLSCAASGIIFTWYAMGWYRQAPGKERELVAAISGSGDITYYADSVKGRFTSSRDNAKNTVYLQMNSLKPEDTAVYYCAADPWTYWEDYDYWGQGTQVTVSS,low polyreactivity
11,QVQLVESGGGLVQAGGSLRLSCAASGIIFTYYAMGWYRQAPGKERELVAAISYRGGSTYADSVKGRFTISRDNAKNTVSLQMNSLKPEDTAVYYCAAQRWYVYGQKYHYGYWGQGTQVTVSS,high polyreactivity
12,QVQLVESGGGLVQAGGSLRLSCAASGIIFVKNAMGWYRPAPGKERELVAAISDNADSTYYADSVKGRFTISRDNAKNTVYLQMNSLKPEDTAVYYCAADWVHRTWLFWYTKYDYWGQGTQVTVSS,low polyreactivity
13,QVQLVESGGGLVQAGGSLRLSCAASGIIFVKNAMGWYRQAPGKERELVAAISRSGARTYYADSVKGRFTISRDNEKNTVYLQMNSLKPEDTAVYYCNVYTRDRGYDYWGHGTQVTVSS,high polyreactivity
14,QVQLVESGGGLVQAGGSLRLSCAASGIIFVKNAMGWYRQAPGKERELVASISGSGGRTYYADSEKGRFTISRDNAKNTVYLQMNILKPEDTAVYYCNTLLAPHARKARRHDYWGQGTQVTVSS,low polyreactivity
15,QVQLVESGGGLVQAGGSLRLSCAASGIIFVKYAMGWYRQAPGKERQLVAAITSGGSTYYADSVKGRFTISRDNAMYTVYLQMNSLKPEDTAVYYCNADSWFLYFFTINGYWGQGTQVTVSS,high polyreactivity
16,QVQLVESGGGLVQAGGSLRLSCAASGIIFVSYAMGWYRQAPGKERELVADITSGGRTYYADSVKGRFTISRDNAKNTVYLQMNSLKPEDTAVYYCAATYSYKGRWVWVYYWGQGTQVTVSS,high polyreactivity
17,QVQLVESGGGLVQAGGSLRLSCAASGIIFVSYDMGWYRQAPGKERELVAAINRGGRTYYADSVKGRFTISRDNAKNTDYLQMNSLKPEDTAVYYCAAQFHFRPFSWTYDYWGQGTQVTVSS,high polyreactivity
18,QVQLVESGGGLVQAGGSLRLSCAASGIIFVTNDMGWYRQAPGKERELVATITWSGGSTYYADSVKGRFTISRDTAKNTVYLQMNSLKPEDTAVYYCAAEKDAHKEDYWGQGSQVTVSS,low polyreactivity
19,QVQLVESGGGLVQAGGSLRLSCAASGIIFVVYAMGWYRQAPGKERELVAAISFRGGSTYYADSVKGRFTISRDNAKNTVYLQMNSLKPEDTAVYYCAARAFRHDGYDYWGQGTQVTVSS,low polyreactivity
20,QVQLVESGGGLVQAGGSLRLSCAASGIIFVYYAMGWYRQAPGKERELVAAISRSGGRTYYADSVKGRFTISRDNAKNTVYLQMNSLKPEDTAVYYCAAEVYKRYRYDYWGQGTQVTVSS,high polyreactivity
21,QVQLVESGGGLVQAGGSLRLSCAASGIIFVYYGKGWYRQAPGKERELVAAISWSGDDTYYADSVKGRFTISRDNAKNTVYLQMNSLKPEDTAVYYCAARPGYVHIDFDYWGQGSQVTVSS,low polyreactivity

row,Sequence,polyreactivity (PSR sort gate)
1,QVQLVESGGGLVQAGGSLRLSCAASGIIFVYYVMGWYRQAPGKERELVASIDGSGGSTNYADSVKGRFTISRDNAKYTVYLQMNSLKPEDTAVYYCNADNILYWSTLDYWGQGTQVTVSS,low polyreactivity
2,QVQLVESGGGLVQAGGSLRLSCAASGIIFWDYAMGWYRQAPGKEREFVAAINTSGGTTTYADSVKGRFTISRDNAKNTVYLQMNSLKPEDTAVYNCAADPWGYYSYAYYYWGQGTQVTVSS,low polyreactivity
3,QVQLVESGGGLVQAGGSLRLSCAASGIIFWHYAMGRYIQAPGKERELVADISRRGGSTYYADSVKGRFTISRDNAKNTVYLQMNSLKPVDTAVYYCAARYHPGGYDSWGQGTQVTVSS,low polyreactivity
4,QVQLVESGGGLVQAGGSLRLSCAASGIIFWLYAMGWYRQAPGKERELVAAINWSGSTTYYADSVKGRFTISRDNAKNTVYLQMNSLKPEDTAVYYCAASRVRAYYYTSSLRRYYYWGQGTQVTVSS,high polyreactivity
5,QVQLVESGGGLVQAGGSLRLSCAASGIIFWLYTMGWYRQAPGKERELVAAITSGGSTYYADSVKGRFTISRDNAKNTVYIQMNSLKPEDTAVYYCAAVPRYRRGKYDYWGQGTQVTVSS,high polyreactivity
6,QVQLVESGGGLVQAGGSLRLSCAASGIIFWRYAMGWYRQAPGKERELVASISWSGGSTSYADSVKGRFTISRDNAKNTVYLQMNSLKPEDTSVYYCAAVYYYRRRYYYWGQGTQVTVSS,high polyreactivity
7,QVQLVESGGGLVQAGGSLRLSCAASGIIFWSYTMGWYRQAPGKEREFVASLRKSGGSTYYADSVKGRFTISRDNSKNTVYLQMNSLKPEDTAVYYCAAVYRRYLGGGYDYWGQGTQVTVSS,high polyreactivity
8,QVQLVESGGGLVQAGGSLRLSCAASGIIFWWYAMGGDRQAPGKERELVAAISGTGGSTYYADSVKGRFTISRDNAKNTVYLQMNTLKPEDTAVSYCPARGTSSSYYDYDYWGQGTQVTVSS,low polyreactivity
9,QVQLVESGGGLVQAGGSLRLSCAASGIIFWWYDMGWYRQAPGTERELVAAISTGSRTNYADSVKGRFTISRDNAKNTVYLQMNSLKPEDTAVYYCAAEWVGFSGYYGSGYEMDYWGQGTQVTVSS,low polyreactivity
10,QVQLVESGGGLVQAGGSLRLSCAASGIIFWYNAMGWYRQAPGKERELVAAITYSGGSTYYADSVKGRFTISRDNAKNTVYLQMNSLKPEDTAVYYCAADGYSRYASGGYEYWGQGTQVTVSS,low polyreactivity
11,QVQLVESGGGLVQAGGSLRLSCAASGIIFWYYAMGWYRQAPGKERELVAAISQSGGSTYYADSVKGRFTISRDNAKNTVYLQMNSMKPEDTAVDYCAAKPFYWSLEYDYRGQGTQVTVSS,high polyreactivity
12,QVQLVESGGGLVQAGGSLRLSCAASGIIFWYYAMGWYRQAPGKERELVAAISSGGGTNYADSVKGRFTISRDNAKNTVYLQMNSLKPEDTAVYYCNADDNPVWEYDYWGQGTQVTVSS,low polyreactivity
13,QVQLVESGGGLVQAGGSLRLSCAASGIIFYAYAMGWYRQAPGKERELVAAITFSAVSTYYADSVKGRFTISRDNAKNTVYLQMNSLKPEDTAVYYCAVDREWPGYYYAISKMYYWGQGTQVTVSS,low polyreactivity
14,QVQLVESGGGLVQAGGSLRLSCAASGIIFYDYAMGWYRQAPGKERELVAAISRSGGSTYYADSVKGRFTISRDNAKNTVYLQMNSLKPEDTAVYYCNADEVVWGYNYWGQGTQVTVSS,low polyreactivity
15,QVQLVESGGGLVQAGGSLRLSCAASGIIFYDYAMGWYRQAPGKERELVAAISSSGGRTYYADSVKGRFTISRDNAKNTVYLQMNSLNPEDTAFYYCATVSSIYRVRSTSIRYNYWGQGTQVTVSS,high polyreactivity
16,QVQLVESGGGLVQAGGSLRLSCAASGIIFYENAMGWYRQAPGKERELVADITQSGGSTYYADSVKGRFTISRDNAKNTVYLQMNSLKPEDTAVYYCARDGDLWYYKGYGTLFDYWGQGTQVTVSS,low polyreactivity
17,QVQLVESGGGLVQAGGSLRLSCAASGIIFYFYAMGWYRQAPGKERELVAAISRGGSTKYADSVKGRFTISRDNAKNTVYLQMNSLKPEDTAVYYCAATRRRPSEYYYWGPGTQVTVSS,high polyreactivity
18,QVQLVESGGGLVQAGGSLRLSCAASGIIFYFYAMGWYRQAPGKERELVAAITSGGSTNYADSVKGRFTISRDNAKNTVYLQMNSLKPEDTAVYYCAADRDYYFFRYDYWGQGTQVTVSS,low polyreactivity
19,QVQLVESGGGLVQAGGSLRLSCAASGIIFYGYAMGWYRQAPAKERELVAAITYSGGSTYYADSVKGRFTISRDNAKNTVYLQMNSLKPEDTAVYYCDAYDAYSPYLALYDYWVQGTQVTVSS,low polyreactivity
20,QVQLVESGGGLVQAGGSLRLSCAASGIIFYGYAMGWYRQAPGKERELVATISTGGRTNYADSVKGRFTISRDNAKNTVYLQMNSLKPEDTAVYYCAARSFWTYRSGGPSDYYYWGQGTQVTVSS,high polyreactivity
